# Test results reported in the DeepSol protein solubility set.
# Assay: soluble on expression in E. coli; label from the status in PepcDB or PDB records
row,Sequence,soluble on expression in E. coli
1,RDSSDDWEIPDGQITVGQRIGSGSFGTVYKGKWHGDVAVKMLNVTAPTPQQLQAFKNEVGVLRKTRHVNILLFMGYSTKPQLAIVTQWCEGSSLYHHLHASETKFEMKKLIDIARQTARGMDYLHAKSIIHRDLKSNNIFLHEDNTVKIGDFGLATVKSRWSGSHQFEQLSGSILWMAPEVIRMQDSNPYSFQSDVYAFGIVLYELMTGQLPYSNINNRDQIIEMVGRGSLSPDLSKVRSNCPKRMKRLMAECLKKKRDERPSFPRILAEIEELARELSG,soluble
2,MPSSIYRYETIQVAGRGAFGLVVIARDTLTSKRVAIKRIMVPNVSKVSLAREISCLRNLHHRNILKLLDCFPSADLMSIVTEEVPYTLGDIIKDKTRPKTEQFNRWYYTQILSGIAYLHSKEIMHRDIKPENILVTSRNVVKIADFGQACFYMPKDPNQEYDVNVATRWYRAPELLFGSKKYKPDVDIWAIGCILAELVRGKPIFPGRSELEQISIIFGVLGTPNEDNWPNWRTMPDANKLLFEPKEPRNNWTEILLCKEISNNFTEFLGSHLQFFKRLKASELLKEPWIKQGLPLVEPNYRISKKSTRRNQRDALPPLHVFL,not soluble
3,MDINKLKLTPDSSIKEALKIVGQERVRLGIIVDKKDKFLGVISDSNIRKALISGKTLKDSIKDIYTKNPITIKENTSKEQLLKISAKTDIYDFPVLDEKGQILSIKSISSLLKANPNSIIIMAGGLGSRLKELTKDTPKPMLKVGKKPILESIIQRLKNQNFENFIFCVNYKKQIIEDYFQKGQKFGVKISYIKERKKLGTAGALSLIKQEFKESFIVMNADILTELDFNALLKAHKKSKALMSVCVREFEQQIPYGVITQKQGFIENIEEKPTQKFLVSAGIYVLENEILNLIAKNEYLDMPELIKLVLQKGKVNTYIINDYWIDIGRPDEFLKANEDFKLEHHHHHH,soluble
4,MNDVDVLVVGAGALGLACAARLAEAGHGVLVAERERLVGSHTSSRNSEVIHAGLYYPPGSLKADLCLEGRERLYAWCARHGVGHRRIGKLLVAVEENERERLQALAANARACGVDDLMPLDGTTLRALEPQVRGVAALLSPSTGIIDSHAYLQSLQAVAERHGAQLALDTRVDRLERHAGGWRAEGQSVGEAFRLRAGWVVNAGGLFAQALAQRTEGLDPRLVPALHLCQGRYFSYSGRSPFRHLVYPMPEARTAGLGIHATLDLGGQLRFGPDVNYVDNLDYRVDESLRPAFAQVISRYFPGIDPRRLAAGYAGIRPKLGGPGEPAADFIIQTPAEHGLPGLVNLFGIESPGLTASLALAERVARALLEHHHHHH,not soluble
5,SMPKDVGILALEVYFPAQYVDQTDLEKYNNVEAGKYTVGLGQTRMGFCSVQEDINSLCLTVVQRLMERIQLPWDSVGRLEVGTETIIDKSKAVKTVLMELFQDSGNTDIEGIDTTNACYGGTASLFNAANWMESSSWDGRYAMVVCGDIAVYPSGNARPTGGAGAVAMLIGPKAPLALERGLRGTHMENVYDFYKPNLASEYPIVDGKLSIQCYLRALDRCYTSYRKKIQNQWKQAGSDRPFTLDDLQYMIFHTPFCKMVQKSLARLMFNDFLSASSDTQTSLYKGLEAFGGLKLEDTYTNKDLDKALLKASQDMFDKKTKASLYLSTHNGNMYTSSLYGCLASLLSHHSAQELAGSRIGAFSYGSGLAASFFSFRVSQDAAPGSPLDKLVSSTSDLPKRLASRKCVSPEEFTEIMNQREQFYHKVNFSPPGDTNSLFPGTWYLERVDEQHRRKYARRPV,soluble
6,MAHHHHHHMLPNHSCKGFVDAQGRVFVDGREYPMASGIVATEDVIQANIKAMANTIAKDYKSLSHRDVRLSPGTAATAEAAEAPISYDNPLIIISVLKGSYIFTSDFIRYLGDCGLPHVVDFVRLASYNSDTTSTGQISMLAGLRFENLRGKHVLIVEDVCDSGRTLRFLRDYIMEKFQPKSVKTLVMVNKEQAARKLDFDPEYFCLAGPNKYIVGYGFEVNDRYRDLRHIFILRDGEATRYPAKL,soluble
7,MSRQPKPARLAGGALALGLLLGLPNPVEAAQDNGMEHSAMDHGAMPGMDHGAASPAPAQPMEHRGMDHGRMPGMSHAARQPPAQAASSQSRTPIPVPTEADRRAAFPPLEGHKVHDSALNSFFLLDQLEYQDADDGSALAWDASGWIGGDINRLWLRSEGERLDGKTEDAEVQALFGHAIGPWWDLVAGVRQDFKPGSPQTWAAFGVQGLALYDFEAEVTAFLGENGQSALRLEGEYDILLTNRLILQPSAEVNLYGRNDPARGIGSGLADSELGLRLRYEIRREFAPYIGVTWNRSYGNSADLARAEGEDDDEARFVAGIRMWFLEHHHHHH,not soluble
8,MKEVLKLADEKFVMSFSGGKDSILALNRMLKKGYKPVALLTTISEEHGKSWTHNLEYNMLKQVSSNIGLPLLVAECGVEGYEESFERALIKAKNMGATICAYGDIDIESHRKWDTDRCEAVGMKVDLPLWQESREDLVYEFIDSGFCSVVTKVNLKHLGEEFLGKKLTRELVEKIKNAGADPCGEHGEYHTFVVDGPIFKKPVEYEVKGTLIKDGYGYLEIK,not soluble
9,AQSRTLLAGIVQQQQQLLDVVKRQQELLRLTVWGTKNLQTRVTAIEKYLKDQAQLNAWGAAFRQVAHTTVPWPNASLTPKWNNETWQEWERKVDFLEENITALLEEAQIQQEKNMYELQKLNS,soluble
10,MGSDKIHHHHHHMKRAYAMPLTNPSFPPGPYRFFDREYIIITYRTTREALEAVVPAPLEIDEPLVKYEFIRMPDSTGFGDYTETGQVIPVKYKGQHGGYVHSMYLDDDAPIAGGRELWGFPKKLANPKIVHEGEVIVGTLHYGSVLCATGTMGYKHREADHDSVLASLAAPNFLIKIIPHVDGGPRICELVRYYLTDITLKEAWTAPAALDLRPHVMADVAKLPVLDIISAVHFKADLTLGLGEVVHDYLSDHNRLATSTTQPEKIRA,not soluble
11,MKHSNKPYDSFQDELEDYIKVQKARGLEPKTCFRRMRGEYLESCGYREEFDSRPRYRMFDQRLPSGTNHSYPRSCSSSQTEDRVPQWLPAHDKIRLNSLSYCQFTRDGFSEKPVPLNLSQQEYNCGSYSVESVVHKRLCSEHSTIDPQVSHRQMHQKRKKHVEEGREKQEERPKHERKRSSEEMDLNKHRSIQRKKTKAETETVQDGTEKLKNRKEKKTRDVSSKKEDRKRRKEKKEQGEERTEEEMLWDQSILGF,not soluble
12,MHHHHHHSSGVDLGTENLYFQSMTKTWTLKKHFVGYPTNSDFELKTSELPPLKNGEVLLEALFLTVDPYMRVAAKRLKEGDTMMGQQVAKVVESKNVALPKGTIVLASPGWTTHSISDGKDLEKLLTEWPDTIPLSLALGTVGMPGLTAYFGLLEICGVKGGETVMVNAAAGAVGSVVGQIAKLKGCKVVGAVGSDEKVAYLQKLGFDVVFNYKTVESLEETLKKASPDGYDCYFDNVGGEFSNTVIGQMKKFGRIAICGAISTYNRTGPLPPGPPPEIVIYQELRMEAFVVYRWQGDARQKALKDLLKWVLEGKIQYKEYIIEGFENMPAAFMGMLKGDNLGKTIVKA,soluble
13,MGSDKIHHHHHHMTTTNGIDGSYYYENRPKEQSNSGILGKDDFLRILIAQLQYQDPLNPMDDREFIAQMAQFSSLEQMTNMNSAIQQFVKQQTSQTLVQHSELIGKRVTWKRIIDIDEYRQKEELVENTVTSVRLETNGNVSIQLDSGRWISADQLVQVSGKTNHQEEAEGDVGDNAPDEQEG,not soluble
14,GDDNEIEIPKAPVLEKAQLALAIKSEEGAVTKTGETTPTDADVNTLTVGVFGVDGWSVIYTKDATPNSDGTKDVGPQEVYAGEAHVVVVANAAPVIQTELAKAKDITDFIETTINLSDETLTKGLTMSSKVLDVTLVANTTNYIGYDDEVGDITVKDISGKEVYGAGPVPLVRDVASIALAGADIGNPENANYESKSFVLKEVFIASAKGVSSVASTEEWGTIEKDFFGDTHFGYLDYKVGLLFLTSPNNIDEGSYKKGLQTKYDALAKKHVENDPALNHEFYVYENTKGEVKSGESNVNEAYANHTLLIVKGDYTYLPQGAKESITKENCYYAIPVGEEVTIDGTEKRSKFYVQRNYKYEISLTIIGPGSEIPYDPMISTNVSASVKVEPWNVKTIHEEVE,soluble
15,MTQEIDIGKYHQLALQKQKEHRKFLATLKKKAPKNLDKIVQEVHTEVFREIDCTKCANCCKILGPLFTESDISRIAKHFRMRLPVFEDMYLRVDEDNDKVFKSMPCPFLGEDNLCFIYDVRPKACREFPHTDRKKIYQINHLTIQNTLICPAVYLFVEKLQERLALEHHHHHH,soluble
16,MSLSNMTQQTRTQQARETMKRVYRYQAANQTRSVIRRSGKTRFIKDTDWERGVFWSCVAAAWLATDDAEYLEGVMNYTLHTGFRPGPNLRFADDLICCQAYLDVWPQIAVPEALEPTIKAVSAMVDEPKPGREDWWWCDSLFMAPATFAALSQRTGDARYLAYMDTAFWDAVDYLRDPDSGLFYRDHRYIPDGNGTELREENGEKVFWSRGIGWVLAAIPRLLARMPEDYTGRQRYLDLFTDLADKVIRYQQADGLWRTSLLDPQRFPAPESSATALFCYGLSWGINQGILAPETYLPVVEKAWDALQGCIHDNGMMGWVQLPAFNPRDVKFEHNMDYGAGAYLLAASEMLRLAEGHHHHHH,soluble
17,MSLKAIAVDMDGTFLDSKKTYDKPRFEAIFTELRNRDITFIAASGNQYAKLKSIFGDRDMYFISENGAVIYKGNELYNYKSFNRQVFQQVVDYLNMNQSIDQLVICGLKSAYILKHTSEAFKEDTRFYYHQLKEIDSLQQLPEDDYVKIAFNINRETHPNVDEEVATQFSNDIKLVSSGHDSIDIIMPNMTKGQALKRLLDKWEMSPSELMAFGDANNDKDMLAFAKHSYVMENSHDEELFNIASAVAPSNDKQGVLTIIEQEVLNKEGHHHHHH,soluble
18,MSGWNAYIDTMTAAAPSIKRCAIVGAADGSVWARTEADNVFKASEEELKTFVALFNDVTQVPAKGADIEGVHYVVPRTEESLIFGKKENTGFFAVKTKSAVLIAVYEGPNEVAAQVRKAVESMQTYLNNAGY,not soluble
19,MIVLGIESSCDETGLAIYDYSKKKLIADELYSQVKLHKKYGGVVPELASREHIAKLNLLAKKIFKETGLSFEDIDCIAYTAMPGLVGALMVGATFAKTLGLIHNIDTIAVHHLEGHLLSPLLDHNSNIEYPFVALLVSGGHTQLFEVKEFGEYSLLGESIDDAAGEAFDKTTKLLGMGYPGGVEVANLADQATDKSKYILPRPMKNKPNLDFSFSGLKTAVLNTWYDEQDQSLENKANLCYAFQDAAIDVLVSKCAKALQKTKNTRLVISGGVSANKLLRHQLDLLAKNRGYQIFFPPMKYCTDNGAMIALAGAYRYVNGFKDSNLEINVKARSPL,soluble
20,MPPRCYNSNSRRAELLERIQSDIPATVAQALSEDLGGEVNADRDLTAQLLPADKQATATIITREDGIFCGQRWLNEVFIQLGAQISIQWLVTDGDKLTANQTLCHLTGPARILLTGERTALNFLQTLSGVATEVSRYVVQLAGLKTQLLDTRKTLPGLRTALKYAVLCGGGNNHRLGLSDAFLIKENHIIAAGSIKEAVAKAFWIHADVPIEVEVESLDELQQALEAGADIVMLDNFTIPMMRDAVKMRDDHAKTQGSAQLEVSGNVTLETLRSYAETGIDFISVGALTKHITALDLSMRFQ,not soluble
21,AQPKETILSIKDLVVKESRGLDAVKNLSLDVRAGEVVGIAGIDGNGQTELIQALAGLTKVENGSIHLNEKEITNRKPREITEMGVAHVPEDRHKYGLVLEMTLAENIGLQTYYQKPYSSTGILNYRMINKHARELIEEYDVRTPNELVPARALSGGNQQKAIIAREVDRDPDLLIVSQPTRGLDVGAIEYIHRRLIEQRDKNKAVLLVSFELDEILNVSDRIAVIHAGEIVGIVDPKETTENELGLLMAGYSLEEARAELSKVEAGETVE,not soluble
